From patent publication US8933202B2, “AXL antibodies” (U3 Pharma GmbH, priority 2007, dated 2015)

Key:
Format in all cases: cell-based, human
p42/p44 MAP-Kinase [1] = test: p42/p44 MAP-Kinase phosphorylation ELISA; details: 10 μg/ml antibody, 400 ng/ml Gas6; CaSki cervical cancer cells
Method: Next, ELISA experiments were performed in order to investigate whether the rat anti-AXL antibodies of the invention are able to block ligand Gas6-mediated activation of p42/p44 MAP-Kinase. Gas6-mediated p42/p44 MAP-Kinase activation was detected by increased protein (Thr202/Tyr204) phosphorylation. In brief, on the first day, 2×10^4 cells per well were seeded in flat-bottom 96 well plates. The next day, normal growth medium was replaced by serum-free medium to starve cells for 36 h. […] Medium was flicked out and cells were fixed with 4% formaldehyde in PBS (pH 7.5) for 30 min at room temperature. Formaldehyde solution was removed and cells were washed twice with wash buffer (PBS, 0.1% Tween 20). Cells were quenched with 1% H2O2, 0.1% NaN3 in wash buffer and incubated for 20 min at room temperature. Afterwards, the quenching solution was removed, and cells were washed twice with wash buffer and blocked with PBS, 0.5% BSA for 4 h at 4° C. Anti-phospho-p42/p44 MAP Kinase (Thr202/Tyr204) primary antibody (polyclonal rabbit; Cell Signaling #9101) diluted 1:500 in PBS, 0.5% BSA, 5 mM EDTA was added over night at 4° C. On day 4, the antibody solution was removed and the plate was washed 3× with wash buffer. […] Tetramethylbenzidine (TMB, Calbiochem) was added and monitored at 620 nm.

p42/p44 MAP-Kinase [2] = test: p42/p44 MAP-Kinase phosphorylation ELISA, rat versus chimeric antibody; details: 50 ng/ml to 10 μg/ml antibody, 400 ng/ml Gas6; CaSki
Method: To additionally verify whether the rat anti-Axl antibodies of the invention and the corresponding chimeric anti-Axl antibodies of the invention were also able to inhibit Gash-induced activation of p42/p44 MAP-Kinase in CaSki cervical cancer cells to similar extent, ELISA experiments were performed. Here, Gas6-induced p42/p44 MAP-Kinase activation was detected by increased protein (Thr202/Tyr204) phosphorylation. In brief, on the first day, 2×10^4 cells per well were seeded in flat-bottom 96 well plates. The next day, normal growth medium was replaced by serum-free medium to starve cells for 24 h. Thereafter, cells were pre-incubated with 50 ng/ml, 100 ng/ml, 300 ng/ml, 750 ng/ml, 1 μg/ml, and 10 μg/ml of rat anti-Axl antibody 11B7 or chimeric anti-Axl antibody ch11B7 for 1 h at 37° C. and then treated with or without 400 ng/ml Gas6 (R&D Systems) for 10 min at 37° C. Medium was flicked out and cells were fixed with 4% formaldehyde in PBS (pH 7.5) for 30 min at room temperature. Formaldehyde solution was removed and cells were washed twice with wash buffer (PBS, 0.1% Tween 20). Cells were quenched with 1% H2O2, 0.1% NaN3 in wash buffer and incubated for 20 min at room temperature. […] Tetramethylbenzidine (TMB, Calbiochem) was added and monitored at 620 nm.

[3] = test system: NCI/ADR-RES ovarian cancer cells; test: TUNEL staining, combination with doxorubicin; details: 24 h
Excerpt: As rat anti-Axl antibodies of the invention turned out to interfere with Gas6-mediated anti-apoptosis of serum-starved NIH3T3-Axl cl.7 fibroblasts, the question arose, whether antagonistic anti-Axl antibodies would synergize with chemotherapeutic agents in inducing apoptosis, thereby contributing to overcome drug resistance. In this example, NCI/ADR-RES (originally named MCF-7/AdrR) cells—a ovarian cancer cell line (Liscovitch and Ravid, 2007, Cancer Letters, 245, 350-352) displaying a high level of resistance to several agents including doxorubicin (Fairchild et al., 1987, Cancer Research, 47, 5141-5148; Xu et al., 2002, The Journal of Pharmacology and Experimental Therapeutics, 302, 963-971)—were incubated with the antagonistic anti-Axl antibody 11B7 and/or doxorubicin, and apoptosis rates were determined by TUNEL staining. In brief, 3×10^4 NCI/ADR-RES cells in normal growth medium were seeded per well of an 8-chamber culture slide (BD Falcon, cat#354118) which were pre-incubated with the same medium for 1 h at 37° C. The next morning, normal growth medium was removed and cells were washed with and cultured in serum-reduced (0.5% FCS) medium. In the evening, isotypic control antibody 1D5 or the antagonistic anti-Axl antibody 11B7 were added at final concentrations of 10 μg/ml each. In the morning of day 3, doxorubicin at final concentrations of 100 μM, 150 μM, or 200 μM was added, and cells were incubated at 37° C. After 24 h, cells were rinsed once with PBS, fixed with 4% formaldehyde in PBS (pH 7.5) for 20 min at room temperature, air-dried for 5 min, and stored at −20° C. Using the commercially available Fluorescein-FragEL™ kit (Oncogene, cat#QIA39, presently being distributed through Merck-Calbiochem), TUNEL staining was performed according to the supplier's manual instructions (chapter ‘Fluorescein-FragEL™ of cell preparations fixed on slides’, page 10). Applying fluorescence microscopy, cells were analyzed and photos were taken.

B1: 11B7: antagonistic rat anti-AXL monoclonal antibody, rat IgG1 (antibody, V domains shown)
VL: DIQMTQAPSSLPASLGDRVTITCRASQDIGNYLRWFQQKPGKSPRLMISGATNLAAGVPSRFSGSRSGSDYSLTISSLESEDMADYYCLQSKESPWTFGGGTKLELK
VH: EVQLQESGPGLVKPSQSLSLTCSVTGYSITSNYWGWIRKFPGDKMEWMGYITYSGSTSYNPSLKSRISITRDTSKNQFFLQLNSVTSEDTATYYCAITTFYYWGQGVMVTVSS
- ligand-mediated p42/p44 MAP-Kinase activation (phosphorylation) (p42/p44 MAP-Kinase [1]): able to reduce ligand-mediated p42/p44 MAP-Kinase activation
- Gas6-induced p42/p44 MAP-Kinase activation, concentration-dependent (p42/p44 MAP-Kinase [2]): able to block Gas6-induced activation of p42/p44 MAP-Kinase in CaSki cervical cancer cells to similar extent
- apoptosis (TUNEL staining), co-incubation with 100 μM doxorubicin ([3]; 10 μg/ml 11B7 + 100 μM doxorubicin): No TUNEL staining, and hence no apoptosis
- apoptosis (TUNEL staining), co-incubation with 150 μM doxorubicin ([3]; 10 μg/ml 11B7 + 150 μM doxorubicin): substantial induction of apoptosis
- apoptosis (TUNEL staining), co-incubation with 200 μM doxorubicin ([3]; 10 μg/ml 11B7 + 200 μM doxorubicin, compared to control IgG antibody): significantly increased apoptosis rates
